1 substance from PMC5098211 can be followed below.

Assay [1] has as its target human NaV1.5 voltage-gated sodium channel (human) (UniProt Q14524).
The target is the same in assay [2]. The source holds these as a separate data set.

Chain of UniProt Q14524 (Q14524 whole entry): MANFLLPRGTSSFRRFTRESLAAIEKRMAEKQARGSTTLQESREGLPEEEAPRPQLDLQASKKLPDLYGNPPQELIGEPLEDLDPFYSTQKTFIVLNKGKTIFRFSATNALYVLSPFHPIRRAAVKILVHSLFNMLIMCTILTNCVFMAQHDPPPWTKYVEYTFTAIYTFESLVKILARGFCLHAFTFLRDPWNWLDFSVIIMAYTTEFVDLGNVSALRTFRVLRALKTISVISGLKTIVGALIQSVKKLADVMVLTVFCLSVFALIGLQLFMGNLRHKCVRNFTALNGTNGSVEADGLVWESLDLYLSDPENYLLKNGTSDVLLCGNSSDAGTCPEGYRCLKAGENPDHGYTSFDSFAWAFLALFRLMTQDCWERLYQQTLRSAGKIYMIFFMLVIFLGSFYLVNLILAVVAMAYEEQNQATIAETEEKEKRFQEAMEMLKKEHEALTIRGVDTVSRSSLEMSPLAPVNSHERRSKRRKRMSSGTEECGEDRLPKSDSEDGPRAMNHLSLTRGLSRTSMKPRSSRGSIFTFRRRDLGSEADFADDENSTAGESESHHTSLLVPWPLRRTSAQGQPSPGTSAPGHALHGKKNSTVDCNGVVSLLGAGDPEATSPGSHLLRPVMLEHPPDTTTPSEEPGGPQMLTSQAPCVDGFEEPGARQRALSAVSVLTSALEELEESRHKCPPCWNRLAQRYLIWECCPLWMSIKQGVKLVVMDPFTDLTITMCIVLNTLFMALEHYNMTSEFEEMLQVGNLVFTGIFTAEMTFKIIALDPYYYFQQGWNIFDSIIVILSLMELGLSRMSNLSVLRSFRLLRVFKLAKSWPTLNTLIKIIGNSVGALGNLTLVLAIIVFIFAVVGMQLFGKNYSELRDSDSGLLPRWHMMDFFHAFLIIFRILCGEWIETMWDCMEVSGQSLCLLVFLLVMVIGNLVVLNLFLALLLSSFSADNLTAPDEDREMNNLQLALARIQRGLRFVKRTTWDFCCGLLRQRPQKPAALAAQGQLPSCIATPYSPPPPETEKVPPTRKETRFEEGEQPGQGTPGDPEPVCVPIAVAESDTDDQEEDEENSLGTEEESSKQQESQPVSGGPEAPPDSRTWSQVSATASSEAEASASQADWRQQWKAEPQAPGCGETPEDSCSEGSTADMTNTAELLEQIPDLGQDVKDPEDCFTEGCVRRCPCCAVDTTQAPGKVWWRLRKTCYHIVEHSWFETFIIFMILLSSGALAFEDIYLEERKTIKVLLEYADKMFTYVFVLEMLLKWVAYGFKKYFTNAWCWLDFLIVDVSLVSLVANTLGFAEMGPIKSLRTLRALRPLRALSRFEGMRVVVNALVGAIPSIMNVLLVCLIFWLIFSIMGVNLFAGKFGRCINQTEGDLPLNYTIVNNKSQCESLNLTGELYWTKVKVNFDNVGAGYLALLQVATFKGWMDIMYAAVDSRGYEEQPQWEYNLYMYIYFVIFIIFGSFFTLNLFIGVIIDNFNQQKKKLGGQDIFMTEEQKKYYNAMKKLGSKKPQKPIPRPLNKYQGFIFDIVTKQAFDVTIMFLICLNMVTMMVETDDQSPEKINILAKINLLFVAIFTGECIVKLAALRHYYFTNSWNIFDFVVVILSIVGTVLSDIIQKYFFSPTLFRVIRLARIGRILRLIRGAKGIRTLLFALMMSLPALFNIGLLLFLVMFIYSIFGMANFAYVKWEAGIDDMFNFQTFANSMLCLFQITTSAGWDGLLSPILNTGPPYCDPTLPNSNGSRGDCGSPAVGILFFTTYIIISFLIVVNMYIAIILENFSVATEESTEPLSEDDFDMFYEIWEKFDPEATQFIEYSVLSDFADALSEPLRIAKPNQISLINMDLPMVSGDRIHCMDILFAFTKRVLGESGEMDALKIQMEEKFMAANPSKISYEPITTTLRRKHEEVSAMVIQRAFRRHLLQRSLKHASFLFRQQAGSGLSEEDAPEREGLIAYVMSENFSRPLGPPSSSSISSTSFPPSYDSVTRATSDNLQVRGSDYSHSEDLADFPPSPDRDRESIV

“FS50, salivary protein from the flea Xenopsylla cheopis (from UniProt A2IAD2 20-96) (natural protein)” yielded a time constant of inhibition of NaV1.5 currents at 5 μM FS50, whole-cell patch clamp on HEK 293T cells in assay [1] of 15 s. In assay [2], the IC50 of inhibition of NaV1.5 currents, whole-cell patch clamp on HEK 293T cells, FS50 from 0.1 nM to 100 μM turned out to be 1.58 µM and the reduction of the control peak amplitude of the NaV1.5 current at 10 μM FS50, whole-cell patch clamp on HEK 293T cells (at 30 μM the remaining inward current was eliminated completely) stood at 82.5%.
